Experimental data taken from patent publication US20070128190A1.

What was measured:
[1] = target: GST-rat α2 I domain fusion protein (rat); assay: Eu-TMC-2206 on immobilized GST-α2 I domain at 37 °C, Scatchard
[2] = target: GST-rat α2 I domain fusion protein (rat); assay: SPR (Biacore 2000), antibody captured, GST-α2 I domain in solution
[3] = target: human platelet α2β1 integrin (immobilized on microtiter plates) (human) (UniProt P17301); assay: competition with Eu-TMC-2206 on human platelet α2β1-coated plate
human platelet α2β1 integrin (immobilized on microtiter plates) (human), sequence (P17301 30-1181 E534K limits assumed, chain 1 of 2): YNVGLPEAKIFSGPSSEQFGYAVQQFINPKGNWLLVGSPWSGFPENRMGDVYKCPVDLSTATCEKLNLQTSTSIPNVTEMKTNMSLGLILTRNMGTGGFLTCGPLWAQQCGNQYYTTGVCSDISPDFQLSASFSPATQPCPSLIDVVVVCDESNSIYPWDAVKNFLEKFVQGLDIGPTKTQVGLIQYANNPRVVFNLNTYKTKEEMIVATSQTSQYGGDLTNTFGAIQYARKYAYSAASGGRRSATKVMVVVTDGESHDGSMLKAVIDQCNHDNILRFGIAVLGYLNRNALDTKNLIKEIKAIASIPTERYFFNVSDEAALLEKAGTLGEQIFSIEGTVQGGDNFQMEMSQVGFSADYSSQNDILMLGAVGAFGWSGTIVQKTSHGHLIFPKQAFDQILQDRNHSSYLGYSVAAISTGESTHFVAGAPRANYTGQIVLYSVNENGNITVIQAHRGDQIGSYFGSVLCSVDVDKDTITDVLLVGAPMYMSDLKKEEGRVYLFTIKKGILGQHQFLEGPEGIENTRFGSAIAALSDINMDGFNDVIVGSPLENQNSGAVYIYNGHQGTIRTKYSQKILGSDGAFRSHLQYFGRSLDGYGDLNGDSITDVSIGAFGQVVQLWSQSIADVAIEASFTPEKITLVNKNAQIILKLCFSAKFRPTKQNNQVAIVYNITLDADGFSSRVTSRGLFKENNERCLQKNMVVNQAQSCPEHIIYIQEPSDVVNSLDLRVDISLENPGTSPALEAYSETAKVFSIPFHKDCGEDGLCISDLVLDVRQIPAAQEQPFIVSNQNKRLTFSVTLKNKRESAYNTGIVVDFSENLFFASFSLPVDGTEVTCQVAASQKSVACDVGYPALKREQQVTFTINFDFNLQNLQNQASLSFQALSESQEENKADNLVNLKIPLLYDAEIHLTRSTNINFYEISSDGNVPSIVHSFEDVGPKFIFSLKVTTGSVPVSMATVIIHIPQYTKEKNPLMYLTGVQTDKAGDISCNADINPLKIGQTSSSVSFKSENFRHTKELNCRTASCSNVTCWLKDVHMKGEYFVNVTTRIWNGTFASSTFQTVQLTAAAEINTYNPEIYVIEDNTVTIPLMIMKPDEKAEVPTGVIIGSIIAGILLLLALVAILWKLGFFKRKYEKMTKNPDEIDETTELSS
human platelet α2β1 integrin (immobilized on microtiter plates) (human), sequence (chain, as listed by the source limits assumed, chain 2 of 2): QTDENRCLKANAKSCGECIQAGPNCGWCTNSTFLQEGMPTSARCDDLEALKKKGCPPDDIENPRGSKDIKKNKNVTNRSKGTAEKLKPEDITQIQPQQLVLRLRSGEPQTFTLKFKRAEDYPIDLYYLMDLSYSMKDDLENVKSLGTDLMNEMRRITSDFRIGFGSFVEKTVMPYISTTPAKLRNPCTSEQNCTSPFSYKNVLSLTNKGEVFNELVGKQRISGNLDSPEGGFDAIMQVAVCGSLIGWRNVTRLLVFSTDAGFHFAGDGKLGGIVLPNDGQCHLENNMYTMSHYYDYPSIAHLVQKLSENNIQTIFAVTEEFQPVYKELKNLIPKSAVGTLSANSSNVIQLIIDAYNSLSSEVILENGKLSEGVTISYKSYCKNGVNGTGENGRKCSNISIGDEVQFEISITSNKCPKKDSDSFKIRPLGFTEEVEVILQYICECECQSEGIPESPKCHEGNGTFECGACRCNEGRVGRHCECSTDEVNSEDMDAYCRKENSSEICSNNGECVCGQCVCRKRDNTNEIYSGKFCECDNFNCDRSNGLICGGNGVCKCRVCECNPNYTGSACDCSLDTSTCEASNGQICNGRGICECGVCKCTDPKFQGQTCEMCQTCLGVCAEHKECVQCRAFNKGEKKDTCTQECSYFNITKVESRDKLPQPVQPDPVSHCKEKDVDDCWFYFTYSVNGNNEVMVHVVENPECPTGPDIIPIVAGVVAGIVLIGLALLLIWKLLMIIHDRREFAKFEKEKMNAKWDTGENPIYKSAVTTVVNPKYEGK

Kd [1] [nM]	fold decrease compared to human α2 I domain [1] [fold]	Kd [2] [nM]	koff [2] [s⁻¹]	kon [2] [M⁻¹ s⁻¹]	fold shift in potency relative to the mouse-human chimeric TMC-2206 antibody [3] [fold]	Binder
1.3	6	2	0.00082	420000		TMC-2206 (antibody, mouse IgG1, V domains shown) VH: QVQLKESGPGLVAPSQSLSITCTVSGFSLTNYGIHWVRQPPGKGLEWLGVIWARGFTNYNSALMSRLIITKDNSQSQVFLKMNSLQPDDSATYFCARANDGVYYAMDYWGQGTSVTVSS VL: QFVLTQSPAFLSASPGEKVTMTCSANSSVNYIHWYQQKSGTSPKKWIYDTSKLASGVPVRFSGSGSGTSYSLTISSMETEDAATYYCQQWTTNPLTFGAGTRVELK
					> 1600	TMC-2206 VH D100A variant antibody (antibody, part only; not given: Light chain, constant regions, V domains shown, part only) VH: QVQLKESGPGLVAPSQSLSITCTVSGFSLTNYGIHWVRQPPGKGLEWLGVIWARGFTNYNSALMSRLIITKDNSQSQVFLKMNSLQPDDSATYFCARANAGVYYAMDYWGQGTSVTVSS
